Experiments:
Assay in all cases: peptide array
Peptide_014 = target: T1, Peptide_014 (human)
T1 peptide: AKSTPTAEDVTAPLV
Outline: (§1)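 Overlapping 15-mer peptides (5-aa offset) spanning human 2N4R Tau spotted in triplicate on slides; antibodies bound 2 h at room temperature in 3% BSA-TBST (chimeric IgG 5 μg/mL; mouse IgG 30 μg/mL). Detection 1 h with fluorescent anti-human (568 nm) or anti-mouse (647 nm) secondary; fluorescence imaging aligned to array map.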

Peptide_031 = target: T2, Peptide_031 (human)
T2 peptide: IATPRGAAPPGQKGQ
Outline: as §1

Peptide_028 = target: T3, Peptide_028 (human)
T3 peptide: GSDDKKAKGADGKTK
Outline: as §1

Peptide_080 = target: T4, Peptide_080 (human)
T4 peptide: SPVVSGDTSPRHLSN
Outline: as §1

Peptide_036 = target: T5, Peptide_036 (human)
T5 peptide: PPAPKTPPSSGEPPK
Outline: as §1

Peptide_061 = target: T6, Peptide_061 (human)
T6 peptide: PGGGSVQIVYKPVDL
Outline: as §1

Peptide_008 = target: T7, Peptide_008 (human)
T7 peptide: EGDTDAGLKESPLQT
Outline: as §1

Peptide_009 = target: T8, Peptide_009 (human)
T8 peptide: AGLKESPLQTPTEDG
Outline: as §1

Peptide_052 = target: T9, Peptide_052 (human)
T9 peptide: VKSKIGSTENLKHQP
Outline: as §1

Peptide_037 = target: T10, Peptide_037 (human)
T10 peptide: TPPSSGEPPKSGDRS
Outline: as §1

Peptide_047 = target: T11, Peptide_047 (human)
T11 peptide: TPPKSPSSAKSRLQT
Outline: as §1

Peptide_058 = target: T12, Peptide_058 (human)
T12 peptide: NVQSKCGSKDNIKHV
Outline: as §1

Peptide_086 = target: T13, Peptide_086 (human)
T13 peptide: ATLADEVSASLAKQG
Outline: as §1

Peptide_038 = target: T14, Peptide_038 (human)
T14 peptide: GEPPKSGDRSGYSSP
Outline: as §1

Peptide_020 = target: T15, Peptide_020 (human)
T15 peptide: EIPEGTTAEEAGIGD
Outline: as §1

Peptide_072 = target: T16, Peptide_072 (human)
T16 peptide: SLDNITHVPGGGNKK
Outline: as §1

Peptide_074 = target: T17, Peptide_074 (human)
T17 peptide: GGNKKIETHKLTFRE
Outline: as §1

Peptide_059 = target: T18, Peptide_059 (human)
T18 peptide: CGSKDNIKHVPGGGS
Outline: as §1

Peptide_063 = target: T19, Peptide_063 (human)
T19 peptide: KPVDLSKVTSKCGSL
Outline: as §1

Peptide_066 = target: T20, Peptide_066 (human)
T20 peptide: GNIHHKPGGGQVEVK
Outline: as §1

Peptide_067 = target: T21, Peptide_067 (human)
T21 peptide: KPGGGQVEVKSEKLD
Outline: as §1

Peptide_069 = target: T22, Peptide_069 (human)
T22 peptide: SEKLDFKDRVQSKIG
Outline: as §1

Peptide_075 = target: T23, Peptide_075 (human)
T23 peptide: IETHKLTFRENAKAK
Outline: as §1

Peptide_034 = target: T24, Peptide_034 (human)
T24 peptide: ANATRIPAKTPPAPK
Outline: as §1

Peptide_060 = target: T25, Peptide_060 (human)
T25 peptide: NIKHVPGGGSVQIVY
Outline: as §1

Peptide_055 = target: T26, Peptide_055 (human)
T26 peptide: GGGKVQIINKKLDLS
Outline: as §1

Peptide_083 = target: T27, Peptide_083 (human)
T27 peptide: VSSTGSIDMVDSPQL
Outline: as §1

Peptide_016 = target: T28, Peptide_016 (human)
T28 peptide: TAPLVDEGAPGKQAA
Outline: as §1

Peptide_033 = target: T29, Peptide_033 (human)
T29 peptide: GQKGQANATRIPAKT
Outline: as §1

Peptide_053 = target: T30, Peptide_053 (human)
T30 peptide: GSTENLKHQPGGGKV
Outline: as §1

Peptide_078 = target: T31, Peptide_078 (human)
T31 peptide: TDHGAEIVYKSPVVS
Outline: as §1

Peptide_018 = target: T32, Peptide_018 (human)
T32 peptide: GKQAAAQPHTEIPEG
Outline: as §1

Peptide_079 = target: T33, Peptide_079 (human)
T33 peptide: EIVYKSPVVSGDTSP
Outline: as §1

B1: chimeric IgG clone 1A1 (antibody, V domains shown)
VH: EVQLQQSGAELVRPGASVRLSCTASGFNIKDSLMHWLKQRPEQGLEWIGWIDPEDGETKYAPKFQDKATITADTSSNTAYLQLSSLTSEDTAIYYCTRRDWEGPWGQGTLVTVSA
VL: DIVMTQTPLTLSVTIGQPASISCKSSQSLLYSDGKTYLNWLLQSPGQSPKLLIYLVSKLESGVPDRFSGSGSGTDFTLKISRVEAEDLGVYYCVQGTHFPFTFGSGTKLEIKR
notes: mouse-human chimeric IgG from HEK293; also called anti-Tau 1A1; anti-Tau^1A1
**Q.** Does B1 bind (Peptide_014)?
**A.** Result: no binding (tested: 5 ug/mL)

**Q.** Does B1 bind (Peptide_031)?
**A.** Result: no binding (tested: 5 ug/mL)

**Q.** Does B1 bind (Peptide_028)?
**A.** Result: no binding (tested: 5 ug/mL)

**Q.** Does B1 bind (Peptide_080)?
**A.** Result: no binding (tested: 5 ug/mL)

**Q.** Does B1 bind (Peptide_036)?
**A.** Result: no binding (tested: 5 ug/mL)

**Q.** Does B1 bind (Peptide_061)?
**A.** Result: no binding (tested: 5 ug/mL)

**Q.** Does B1 bind (Peptide_008)?
**A.** Result: no binding (tested: 5 ug/mL)

**Q.** Does B1 bind (Peptide_009)?
**A.** Result: no binding (tested: 5 ug/mL)

**Q.** Does B1 bind (Peptide_052)?
**A.** Result: binds

**Q.** Does B1 bind (Peptide_037)?
**A.** Result: no binding (tested: 5 ug/mL)

**Q.** Does B1 bind (Peptide_047)?
**A.** Result: no binding (tested: 5 ug/mL)

**Q.** Does B1 bind (Peptide_058)?
**A.** Result: no binding (tested: 5 ug/mL)

**Q.** Does B1 bind (Peptide_086)?
**A.** Result: no binding (tested: 5 ug/mL)

**Q.** Does B1 bind (Peptide_038)?
**A.** Result: no binding (tested: 5 ug/mL)

**Q.** Does B1 bind (Peptide_020)?
**A.** Result: no binding (tested: 5 ug/mL)

**Q.** Does B1 bind (Peptide_072)?
**A.** Result: no binding (tested: 5 ug/mL)

**Q.** Does B1 bind (Peptide_074)?
**A.** Result: no binding (tested: 5 ug/mL)

**Q.** Does B1 bind (Peptide_059)?
**A.** Result: no binding (tested: 5 ug/mL)

**Q.** Does B1 bind (Peptide_063)?
**A.** Result: no binding (tested: 5 ug/mL)

**Q.** Does B1 bind (Peptide_066)?
**A.** Result: no binding (tested: 5 ug/mL)

**Q.** Does B1 bind (Peptide_067)?
**A.** Result: no binding (tested: 5 ug/mL)

**Q.** Does B1 bind (Peptide_069)?
**A.** Result: no binding (tested: 5 ug/mL)

**Q.** Does B1 bind (Peptide_075)?
**A.** Result: no binding (tested: 5 ug/mL)

**Q.** Does B1 bind (Peptide_034)?
**A.** Result: no binding (tested: 5 ug/mL)

**Q.** Does B1 bind (Peptide_060)?
**A.** Result: no binding (tested: 5 ug/mL)

**Q.** Does B1 bind (Peptide_055)?
**A.** Result: no binding (tested: 5 ug/mL)

**Q.** Does B1 bind (Peptide_083)?
**A.** Result: no binding (tested: 5 ug/mL)

**Q.** Does B1 bind (Peptide_016)?
**A.** Result: no binding (tested: 5 ug/mL)

**Q.** Does B1 bind (Peptide_033)?
**A.** Result: no binding (tested: 5 ug/mL)

**Q.** Does B1 bind (Peptide_053)?
**A.** Result: no binding (tested: 5 ug/mL)

**Q.** Does B1 bind (Peptide_078)?
**A.** Result: no binding (tested: 5 ug/mL)

**Q.** Does B1 bind (Peptide_018)?
**A.** Result: no binding (tested: 5 ug/mL)

**Q.** Does B1 bind (Peptide_079)?
**A.** Result: no binding (tested: 5 ug/mL)
